# Laboratory results published in the DeepSol protein solubility set.
# Assay: soluble on expression in E. coli; label from the status in PepcDB or PDB records
row,Sequence,soluble on expression in E. coli
1,MAFHWQSKVNVQHVGVDDMVLLPKLTEQSIVENLKKRLQANSIFTYIGPVLISVNPFKQMPYFTEKEMLLYQGAAQYENAPHIYALADNMYRNMLIDNESQCVIISGESGAGKTVNAKFIMNYISRISGGGQKVQHIKDVILQSNPLLEAFGNSATVRNWNSSRFGKYVEIVFSRGGEPIGGKLSNFLLEKSRVVHQNEGDRNFHVFYQLCAGADKNLRSTFGIGELQYYNYLNMSGVFKADDTDDGKEFESTLHAMKVVGVNDQDQLEVLRIVATVLHIGNITFTEENNFAAVSGKDYLEYPAFLLGLTSADIEAKLTGRKMESKWGTQKEEIDMKLNVEQASYTRDAWVKAIYARLFDYLVKKVNDAMNITSQSTSDNFSVGILDIYGFEIFNNNGFEQFCINFVNEKLQQIFIELTLKAEQEEYVREGIKWTEIDYFDNKIVCDLIETKRPPGIMSLLDDTCAQNHGQREGVDRQLLTTLSKSFAGHPHFGPGSDSFVIKHYAGDVTYNVDGFCDRNRDVLYPDLILLMQKSSRPFIQALFPENVAASAGKRPTTFSTKIRTQANTLVESLMKCSPHYVRCIKPNETKRPNDWEESRVKHQVEYLGLRENIRVRRAGFAYRRAFDKFAQRYAIVSPQTWPCFQGDQQRACEIICDSVHMEKNQYQMGKTKIFVKNPESLFLLEETRERKFDGYARVIQKAWRQFSARKQHIKQKEQAADLMYGKKERRRYSLNRNFVGDYIGLEHHPTLQSLVGKRQRVLFACTANKYDRKFRVTKLDLLLTVNHLTLIGKEKVKNGPEKGKIVEVIKRQFDLPQIKSIGLSPYQDDFVILYLGNDDYSSLLETPFKTEFCTALSKAYKERTNGTLHLDFRSSHVVSYKKMKFDFSDGKRTVQFGNDGTSSAEKTLKPNGKVLNVSIGTGLPNTTRPSTERPQGGYTPRRDQLRTSTRRTKQNNQSYGQNGQSQAMRAPVPAHGMNNNYNQTPAPVSTNHQYSQEPARIPVMGNVINQLNNMNLSGNGNSPAGRGPPPARGPKPPPPAKPKLNPVVIAVYPYEAQDVDELSFEAGAEIELMNKDASGWWQGKVNNRVGLFPGNYVKE,not soluble
2,MAFKFKTFAAVGALIGSLALAGCGQDEKDPNHIKVGVIVGAEQQVAEVAQKVAKEKYGLDVELVTFNDYVLPNEALSKGDIDANAFQHKPYLDQQIKDRGYKLVSVGKTFVYPIAGYSKKIKSLDELKDGSQVAVPNDPTNLGRSLLLLQKVGLIKLKDGVGLLPTSLDIVENPKNLKIVELEAPQLPRSLDDAQIALAVINTTYASQIGLTPAKDGIFVEDKDSPYVNLIVTREDNKDAENVKKFVQAYQSDEVYEAANKVFNGGAVKGWLEHHHHHH,soluble
3,MAFNDCFSLNYPGNPCPGDLIEVFRPGYQHWALYLGDGYVINIAPVDGIPASFTSAKSVFSSKALVKMQLLKDVVGNDTYRINNKYDETYPPLPVEEIIKRSEFVIGQEVAYNLLVNNCEHFVTLLRYGEGVSEQANRAISTVEFVTAAVGVFSFLGLFPKGQRAKYYLEHHHHHH,soluble
4,MAFSMLFTGHAECVKFVKKFNLPLLVTGGGGYTKENVARCWTVETGILLDTELPNEISENDYIKYFAPDFSLKIPGGHIENLNTKSYISSIKVQILENLRYIQHAPSVQMQEVPPDFYIPDFDEDEQNPDVRVDQRSRDKQIQRDDEYFDGDNDNDAS,not soluble
5,MAFVTTAEVCDANQELIRSGQLRALQPIFQIYGRRQIFSGPVVTVKVFEDNGLIRQFIEEKGNGRVLVVDGGGSQRCAILGGNPVVQAQNNGWAGIVVNGCIRDVDEINGCDIGVRALASHPIKASKKGLGEQRVPVNIAGTRICDGEWLYADTDGILVSQIELSV,soluble
6,MAGAAAAVAAGAAAGAAAAAVSVAAPGRASAPPPPPPVYCVCRQPYDVNRFMIECDICKDWFHGSCVGVEEHHAVDIDLYHCPNCAVLHGSSLMKKRRNWHRHDYTEIDDGSKPVQAGTRTFIKELRSRVFPSADEIIIKMHGSQLTQRYLEKHGFDVPIMVPKLDDLGLRLPSPTFSVMDVERYVGGDKVIDVIDVARQADSKMTLHNYVKYFMNPNRPKVLNVISLEFSDTKMSELVEVPDIAKKLSWVENYWPDDSVFPKPFVQKYCLMGVQDSYTDFHIDFGGTSVWYHVLWGEKIFYLIKPTDENLARYESWSSSVTQSEVFFGDKVDKCYKCVVKQGHTLFVPTGWIHAVLTSQDCMAFGGNFLHNLNIGMQLRCYEMEKRLKTPDLFKFPFFEAICWFVAKNLLETLKELREDGFQPQTYLVQGVKALHTALKLWMKKELVSEHAFEIPDNVRPGHLIKELSKVIRAIEEENGKPVKSQGI,soluble
7,MAGDPMEAIMKKLIGIATAAVFGLGIFTSSANAETVVTTDVLNVRENPTTESKVVGKLLNGNKIDVQNTENGWSKITLDGKDAFVSAEFTKSIYYVTANVLNVRAEANTNSEVLGKLKKDDVIETTNQVQNEWLQFEYNGKTAYVHVPFLTGTAPVIEKQETTAPAKAAAPAKAQAPVAQAKPAAKPAVKAAETNTPSGGRELTVVATAYTAHPSENGGTYGGRVLTAMGHDLTANPNMKMIAVDPKVIPLGSKVWVEGYGEAIAGDTGGAIKGTRIDILLGSDSAAQKWGRKTVKVKILKLEHHHHHH,not soluble
8,MAGDPMKLQKSNHTILLVLEKGEDIVECITTFADDQDLTFTSVSGIGACDDVVLKFFNLTTKQYEEKHITEPLELTSLLGNISRLDNGHFAHLHATFGTQSYETFSGHLAKAIVSATAEIILTVTDLDIQRSFKDAVGLNLLDPQLEHHHHHH,soluble
9,MAGDPMSIPFFSFSWAVMSNLTYLQGYPEQLLSQVRTLINEQRLGDVLAKRYPGTHDYATDKALWQYTQDLKNQFLRNAPPINKVMYDNKIHVLKNALGLHTAVSRVQGSKLKAKAEIRVATVFRNAPEPFLRMIVVHELAHLKEKEHNKAFYQLCCHMEPQYHQLEFDTRLWLTQLSLGQDKILEHHHHHH,not soluble
10,MAGDPMVIIHMIPKKIHYCWFGKGKHSKEMKKCIKSWKKYCPDYEIIEWNESNFDISAHPFVKAAYEAKAWAFVSDYARLKIIYDYGGVYLDTDVELIRNIDFLLQNDAYLGVEAQDWLCNTGLGFGAKKHNSIIAEMLQIYNEIEFDNSKKSTIACPYLNTAVVEKIGYKKQDRIQQLDKITIYPPKYFDPFPSGGSVSILICDETVSIHHYSASWGSWKNKLKRRIARFIGPKLTFKLKKLKIFLITRKLEHHHHHH,soluble
11,MAGDPMYSLFQEGRKMKNTAFLITKNHYPKDYRLKKSPDSDSAMGVAKRILAEVMIFRRVPETISLCGTGCQKCASPHLPKIISAVNKNEPVTFILPAFPGKSPNPEKVLGHLPDHAERLSLNFLGTLCQRIKNFYTPGIKIILCSDGRVFSDVVGMNESDVTAYQLELDRLIKEMSLADLSTFNLDYFYKDLHFVQMREELMKSYGQSLDFLKQKIRNGAKPSASPDEQEANRMYSGITRFLFEDAMHAGQTKSRTAIQKESRFKAYEVIRRSNAWSALIAERFPKAVRLSIHPQTCGSKKLGIRLIGNESWMTPWHGVAVESNKGYVLLRRSEAEALGAKLICSSDGRHSHYQLMAEVSYELAAALEHHHHHH,soluble
12,MAGDPNSMTVSHHNASTARFYALRLLPGQEVFSQLHAFVQQNQLRAAWIAGCTGSLTDVALRYAGQEATTSLTGTFEVISLNGTLELTGEHLHLAVSDPYGVMLGGHMMPGCTVRTTLELVIGELPALTFSRQPCAISGYDELHISSRLEHHHHHH,soluble
13,MAGQSKIIVGGVIGGTSEQEPKGFLDLPVELYQKIIGKLDLHERFRVRKSNQTLRQFIDQMDPAISQIRVSISDSDKCDDWVSRSVRVMAEMLSSSIYPDVKNISTCGLPSSQIAQILPSFQAGKLENLDLYYCGKPTAEDMETIVNSDQWKNAKNISGFRGLSNIRIKDLLHFSLVCVDYATISVETAIEIKDILLTSSNIKHAYFTSKSVLDVNVIRVFDPKAAKVHRKRNLSNLVRNTDFADFTFSSNQKVLRFKKKN,not soluble
14,MAGVKAYELRTKSKEQLASQLVDLKKELAELKVQKLSRPSLPKIKTVRKSIACVLTVINEQQREAVRQLYKGKKYQPKDLRAKKTRALRRALTKFEASQVTEKQRKKQIAFPQRKYAIKA,soluble
